Test [1] has as its target T1, pEZH2(T367) (endogenous EZH2 phosphorylated at T367) (human (endogenous in MDA-MB-231), UniProt Q15910 1-746, phosphothreonine at 367).
T1 construct: EZH2, endogenous, phosphorylated at T367 by p38; also called phosphorylated EZH2 (T367); source: endogenous, MDA-MB-231 (whole cell extracts; fixed cells for PLA)
Kind of test: co-IP; endogenous proteins from whole cell extracts of MDA-MB-231 cells; magnetic Dynabeads with antibody (EZH2, pEZH2 or vinculin); with or without doxycycline to induce MKK6EE and p38 activation. Conditions: partners not purified.

Test [2] has as its target T2, Recombinant vinculin protein (UniProt P18206-2 1-1066).
T2 construct: vinculin, recombinant; The BLI methods describe EZH2 and p38α but say nothing of the vinculin protein
T2 sequence (looked up): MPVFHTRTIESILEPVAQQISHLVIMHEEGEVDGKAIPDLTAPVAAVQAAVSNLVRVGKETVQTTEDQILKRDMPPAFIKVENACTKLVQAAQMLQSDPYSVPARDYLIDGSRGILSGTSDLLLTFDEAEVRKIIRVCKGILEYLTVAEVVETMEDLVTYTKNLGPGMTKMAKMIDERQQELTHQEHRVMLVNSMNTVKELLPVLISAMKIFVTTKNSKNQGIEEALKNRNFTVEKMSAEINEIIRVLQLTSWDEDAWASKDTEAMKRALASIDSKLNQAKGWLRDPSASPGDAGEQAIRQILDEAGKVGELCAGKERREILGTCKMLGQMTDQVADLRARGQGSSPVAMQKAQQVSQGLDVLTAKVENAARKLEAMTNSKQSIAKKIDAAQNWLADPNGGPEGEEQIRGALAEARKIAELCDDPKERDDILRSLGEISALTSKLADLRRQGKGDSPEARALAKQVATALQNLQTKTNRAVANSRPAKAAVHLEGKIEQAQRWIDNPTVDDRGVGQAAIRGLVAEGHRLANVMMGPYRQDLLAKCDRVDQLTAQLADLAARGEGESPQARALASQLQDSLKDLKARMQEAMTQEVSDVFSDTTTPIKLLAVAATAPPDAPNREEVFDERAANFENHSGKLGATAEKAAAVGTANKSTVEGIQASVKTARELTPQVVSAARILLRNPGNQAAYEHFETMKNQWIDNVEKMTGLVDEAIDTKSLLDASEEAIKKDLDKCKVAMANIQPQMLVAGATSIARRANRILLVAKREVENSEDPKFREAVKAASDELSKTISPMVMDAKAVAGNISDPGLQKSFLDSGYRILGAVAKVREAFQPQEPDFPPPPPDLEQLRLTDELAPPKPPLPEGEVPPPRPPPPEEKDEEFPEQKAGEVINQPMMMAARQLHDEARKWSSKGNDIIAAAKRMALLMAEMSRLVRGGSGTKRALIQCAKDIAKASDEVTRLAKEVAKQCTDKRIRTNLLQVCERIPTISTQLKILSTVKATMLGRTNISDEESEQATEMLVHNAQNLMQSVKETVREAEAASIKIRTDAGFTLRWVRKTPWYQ
Kind of test: BLI; biotinylated GST-EZH2 immobilised on Super Streptavidin (SSA) biosensors; analyte in a concentration series; OctetRED96; 30 °C; HBS-P (10 mM HEPES pH 7.4, 150 mM NaCl, 0.005% tween-20); double referencing; kinetic fit, 1:1 binding model. Particulars: both partners purified.

For test [3], the target named is T2, Recombinant vinculin protein. Briefly: BLI; same experiment as a1 (EZH2 immobilised, 30 °C, HBS-P); steady state analysis of response against concentration. Particulars: both partners purified.

T1 sequence (Q15910 whole entry): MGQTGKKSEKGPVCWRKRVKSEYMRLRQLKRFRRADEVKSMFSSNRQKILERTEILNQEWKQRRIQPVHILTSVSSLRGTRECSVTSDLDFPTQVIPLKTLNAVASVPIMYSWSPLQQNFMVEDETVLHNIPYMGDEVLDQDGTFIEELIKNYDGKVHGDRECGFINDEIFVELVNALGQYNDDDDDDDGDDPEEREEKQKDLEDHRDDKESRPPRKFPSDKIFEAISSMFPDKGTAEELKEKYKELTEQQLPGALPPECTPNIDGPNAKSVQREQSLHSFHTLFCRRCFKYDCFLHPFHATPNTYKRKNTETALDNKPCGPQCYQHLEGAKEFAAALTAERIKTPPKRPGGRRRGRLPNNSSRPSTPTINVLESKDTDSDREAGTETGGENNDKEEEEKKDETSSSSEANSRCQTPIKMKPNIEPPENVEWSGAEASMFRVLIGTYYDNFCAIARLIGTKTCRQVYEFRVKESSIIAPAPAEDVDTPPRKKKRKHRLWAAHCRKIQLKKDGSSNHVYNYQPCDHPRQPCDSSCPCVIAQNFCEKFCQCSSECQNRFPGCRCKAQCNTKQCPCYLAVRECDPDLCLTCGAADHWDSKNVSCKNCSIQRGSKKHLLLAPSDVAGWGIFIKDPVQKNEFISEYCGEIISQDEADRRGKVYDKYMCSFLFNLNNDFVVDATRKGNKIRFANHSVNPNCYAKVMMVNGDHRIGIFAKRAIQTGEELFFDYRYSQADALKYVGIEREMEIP

B1: vinculin (endogenous) (natural protein, human (endogenous in MDA-MB-231), UniProt P18206-2 1-1066, looked up)
chain: T2 sequence (looked up)
notes: vinculin, endogenous; source: endogenous, MDA-MB-231 (whole cell lysate; fixed cells for PLA)
For B1, in test [1], the “fold increase of binding on p38 activation against uninduced controls” value is ~10 fold.

B2: Recombinant EZH2 (GST-EZH2 aa 2-end) (natural protein)
chain: not shown
modifications: biotin (Sulpho-NHS-LC-biotin, protein and biotin mixed 1:1 molar ratio)
notes: EZH2 (Enhancer of zeste homolog 2), aa 2-end; GST-EZH2 MW = 114 kDa; The vendor is printed only as 'Bioscience'; also called Enhancer of zeste homolog 2; immobilized EZH2; source: bought: Bioscience (recombinant)
In the case of B2, in test [2], the equilibrium dissociation constant (Kd) (as a rule, the constant that tells how readily two partners part at equilibrium) worked out at 15 nM; the off-rate (koff) (as a rule, the rate constant with which the complex falls apart) stood at 0.00385 s⁻¹; the on-rate (kon) – broadly, the second-order rate constant of association – worked out at 294000 M⁻¹ s⁻¹. For the same molecule, the Kd in test [3] was determined as 42 nM.

For the origin of these results see paper PMC6051995, “p38-mediated phosphorylation at T367 induces EZH2 cytoplasmic localization to promote breast cancer metastasis” (Nature Communications, 2018).
